± gives the half width of the 95% confidence interval.

Series [1] is described as follows: folding stability dG unfold from chymotrypsin proteolysis; higher = more stable. Put shortly: (§1)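 Unfolding free energy was derived, per protease or combined, against a sequence-predicted unfolded-state K50 and a shared folded-state K50, starting from K50 inferred by Bayesian fitting of sequencing counts. Digestion with trypsin and chymotrypsin was carried out on designed mini-proteins under 80 residues without cysteine in a PA-tagged cDNA display construct. Only designs with AlphaFold2 dimer inter-PAE above 15 were kept.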

A short description of series [2]: folding stability dG unfold from trypsin proteolysis; higher = more stable. Put shortly: as §1
Series [3] is described as follows: folding stability dG unfold (combined trypsin and chymotrypsin); higher = more stable. Put shortly:
as §1

As for “SMGVKIEIDKEIIEKAIEEGKTFEADAKIKIEAYNPKTGKKIAEAEKIVKIRLEIEPPKAEPDPETGKPESA [r9_396_TrMRF]”, the “folding stability dG unfold” value in series [1] stood at 0.36 ± 0.066 kcal/mol; in series [2], 0.661 ± 0.071 kcal/mol; in series [3], 0.633 ± 0.13 kcal/mol.
For “SMIDIEISTDPNNPNVITVTAKYPDPEKAKEYLEKKLKEEYDVISISYEYEPENPIITFTFTYASPEKPQSA [r9_1120_JUSTAS]”, in that order: 3.11 ± 0.052 kcal/mol, 2.37 ± 0.078 kcal/mol and 2.79 ± 0.15 kcal/mol.
For “SMIIKPGMSLEEVLNKIKELLKKGEKYKITVINKETGKVYEFEIDVKTKKIKVKEVTLENGEVIIKIEKVSA [r9_1059_TrROS_Hall]”, in that order: 3.54 ± 0.07 kcal/mol, 1.93 ± 0.046 kcal/mol and 3.05 ± 0.12 kcal/mol.
In the case of “SMIIPPELGFEEAVELIKELLEPEKTYLVVTGDPETGTLSVARLDPETGEVEVEPLPTTEGESFVAVFEISA [r9_1059_TrMRF]”, the “folding stability dG unfold” value came to 1.3 ± 0.059 kcal/mol in series [1], 1.09 ± 0.044 kcal/mol in series [2] and 1.27 ± 0.07 kcal/mol in series [3].
For “SMIKIKLKNGMEITIEKTPEKVKIKLKATGKEIELPLEELENMTEEELLEKLRKLAEELGMEVEEVEIEPSA [r9_1211_TrROS_Hall]”, in that order: 3.43 ± 0.083 kcal/mol, 3.18 ± 0.14 kcal/mol and 3.38 ± 0.11 kcal/mol.
The matching figures for “SMIKIKVVEKKDGKYKIKIENKKTGKTFEFEFDTKEEAEEAEKNPGKTIYLSEEALKKLKKENITKVEKVSA [r9_390_TrROS_Hall]”: 1.24 ± 0.087 kcal/mol, 0.442 ± 0.065 kcal/mol and 1.11 ± 0.15 kcal/mol.
Regarding “SMIKPGDTVTIVLKVKPEDLEKIREAVEELLRELFPDVEVESVEVNPEEENYVVITVRVDGKEITLVIERSA [r9_1079_TrROS_Hall]”, the “folding stability dG unfold” value in series [1] was 2.262 ± 0.021 kcal/mol; in series [2], 2.78 ± 0.048 kcal/mol; in series [3], 2.5 ± 0.041 kcal/mol.
With “SMITIEINVGNKKYTVEIVPEKGIIKITDPNGTPIGEGEIKPDSIDITLTKPNTDETYKFTFPIPPESLPSA [r9_963_JUSTAS]”, the “folding stability dG unfold” value turned out to be 3.04 ± 0.12 kcal/mol in series [1], 2.29 ± 0.1 kcal/mol in series [2] and 2.69 ± 0.18 kcal/mol in series [3].
For “SMIVKSEPVKDPNSDLTTTPVTITLPVREYDPSLGVTRERLVTINGTVITTLLEKHPDGSVISTVDVLPASA [r9_1058_JUSTAS]”, in that order: 0.69 ± 0.039 kcal/mol, -0.177 ± 0.026 kcal/mol and 0.427 ± 0.049 kcal/mol.
The matching figures for “SMIVTEEVSYDPSTNTRTITKTVYEKDENGNLVPVETEVVVEPVEEPPPYVPVIKVPPSNKTPEDRVKVLSA [r9_888_JUSTAS]”: 1.02 ± 0.27 kcal/mol, -0.035 ± 0.23 kcal/mol and 0.781 ± 0.35 kcal/mol.
The matching figures for “SMKDATSTSIGSRTYTYPNTDPSVSPEELKEKVIEEIKKEPELKAVEITVEVDPSTGTVTITINLTKLVKSA [r9_1001_JUSTAS]”: 1.76 ± 0.054 kcal/mol, 1.14 ± 0.021 kcal/mol and 1.5 ± 0.077 kcal/mol.
Regarding “SMKIEVSGGNVTVEMYMWRRKKERDPDDPGKERDQPEPMPQTHTIDPNDPEAAKKFLDKFPPGFRPEIHDSA [r9_476_TrROS]”, the “folding stability dG unfold” value in series [1] is 0.0896 ± 0.43 kcal/mol; in series [2], 0.594 ± 0.19 kcal/mol; in series [3] it was 0.446 ± 0.25 kcal/mol.
The matching figures for “SMKIKIKVETNPNGEKKIEIEIELKEEDIEFDEGMTLEERKEKLRELAEELAKKLKEEGKEVKIVEIEVESA [r9_751_TrROS_Hall]”: 2.27 ± 0.048 kcal/mol, 1.8 ± 0.067 kcal/mol and 2.1 ± 0.17 kcal/mol.
The matching figures for “SMKIKIPVLIKVDPSETIEEVLEKVKEIAEEIAKFLESKGGPVEVKADVEPIPEIDYVIVTVEAYVPEEASA [r9_1161_TrMRF]”: 1.8 ± 0.082 kcal/mol, 1.53 ± 0.075 kcal/mol and 1.54 ± 0.17 kcal/mol.
For “SMKIKIYVAPPGYVVVRITGPNGFYIPIPAKDPDEAKAKLEELINNLQERNGHKPDIDVVPFPPGQEIGDSA [r9_786_TrROS]”, in that order: 2.22 ± 0.1 kcal/mol, 1.39 ± 0.044 kcal/mol and 1.93 ± 0.15 kcal/mol.
As for “SMKIPGMSAKEKLRKAIEALLEEAEKKGIKEITIKIYNKKTKKPIKEIKFKSKEELLKKIEEGDEVEIEFSA [r9_718_TrROS_Hall]”, the entries for the “folding stability dG unfold” value in series [1], in series [2] and in series [3] were 1.71 ± 0.061 kcal/mol, 2.1 ± 0.045 kcal/mol and 1.83 ± 0.13 kcal/mol, respectively.
For “SMKIPVKTNDPEALKELLNKIKEILEKAKEKGYEIFPIPIILDNGKEIIFPIDPNDKIEEVIKKIEEALKSA [r9_127_TrMRF]”, in that order: 1.38 ± 0.097 kcal/mol, 2.7 ± 0.15 kcal/mol and 2.02 ± 0.23 kcal/mol.
The matching figures for “SMKITEIEPDGDGTLEIEIPVEAPPGMDPDEVQIYVMSDDGIRHVRITPNGTVEITIENIPDIRIYIFVHSA [r9_722_TrROS]”: 2.47 ± 0.073 kcal/mol, 1.79 ± 0.051 kcal/mol and 2.26 ± 0.079 kcal/mol.
The matching figures for “SMKITTDPVNKTISATFPPGTDPLAETQKIVDEVKKKENSGDITITFSTGNTTINYTLGTNTVTTTPAGTSA [r9_224_JUSTAS]”: -0.35 ± 0.19 kcal/mol, -0.0577 ± 0.063 kcal/mol and -0.0954 ± 0.096 kcal/mol.
As for “SMKIVEVEVFEDPETGKLVVIVKLDGEEVVEVEEGEKVEIEVEPGDTLLVFVVDAETGEIKEEKEIKVEESA [r9_209_TrROS_Hall]”, the entries for the “folding stability dG unfold” value in series [1], in series [2] and in series [3] were 1.2 ± 0.12 kcal/mol, 0.541 ± 0.12 kcal/mol and 1.11 ± 0.16 kcal/mol, respectively.
For “SMKIVIVKNKDGTVIVRITFPNGEEITITAKTEEEAKKAIEELIKKLQEKYNIKIKIEVKPVKPGEVIEESA [r9_786_TrROS_Hall]”, in that order: 2.84 ± 0.08 kcal/mol, 2.92 ± 0.093 kcal/mol and 2.93 ± 0.15 kcal/mol.
As for “SMKIYKTKEEAEKAAKETGKKVIVIKKGMSLEELLELLKKLKGLKEGQKVILVIQNEDGETYVIVLEIKPSA [r9_314_TrROS_Hall]”, the “folding stability dG unfold” value came to 1.43 ± 0.13 kcal/mol in series [1], 1.82 ± 0.099 kcal/mol in series [2] and 1.74 ± 0.17 kcal/mol in series [3].
Take “SMKKKVVVKAKIEKIRPDGGKEELEEVFVMEVSPDDPEEIKAAIDEAIEALKKAYPNIKKIEIEEVIIEDSA [r9_436_TrMRF]”: the “folding stability dG unfold” value in series [1] came to 3.36 ± 0.21 kcal/mol; in series [2] it was 3.81 ± 0.24 kcal/mol; in series [3] it was 3.79 ± 0.36 kcal/mol.
The matching figures for “SMKKTIIIKVKKEDMTPEEIAKKLAELGYEVEIVDVEYDEETEEVYITVEIYDENGELIEKIEIKLPRKDSA [r9_879_TrROS_Hall]”: 0.956 ± 0.17 kcal/mol, 0.825 ± 0.16 kcal/mol and 0.916 ± 0.42 kcal/mol.
For “SMKKTYTFPVTLVPKDGKASLTVNWYAPDGTSLGTQTKSASAEGNTVTATVTVTVDAPPGAKIPSITVNASA [r9_292_JUSTAS]”, in that order: 0.473 ± 0.052 kcal/mol, 0.091 ± 0.041 kcal/mol and 0.353 ± 0.038 kcal/mol.
The matching figures for “SMKKVLIVTPNPEINPEEVVKALKEKGFKEIKVFSTPEELKEALPEYDIVIIEENGKLYIKYIPPGKLAKSA [r9_750_TrMRF]”: 1.79 ± 0.12 kcal/mol, 0.334 ± 0.17 kcal/mol and 1.35 ± 0.27 kcal/mol.

The values above are taken from the supplement of paper PMC12764529.
